The results in this text go back to patent US20260242735A1 (UNIVERSIT T BASEL, published 2026).

Among the targets are human CD33 P48M (human, UniProt P20138 18-364); human CD33 P48N (human, UniProt P20138 18-364); human CD33 T42K (human, UniProt P20138 18-364); human CD33 Y50D (human, UniProt P20138 18-364); human CD33 Y50P (human, UniProt P20138 18-364); human CD33 Y50H (human, UniProt P20138 18-364); human CD33 I47V (human, UniProt P20138 18-364); human CD33 F44I (human, UniProt P20138 18-364); human CD33 F44H (human, UniProt P20138 18-364); human CD33 I47G (human, UniProt P20138 18-364); human CD33 Y49L (human, UniProt P20138 18-364); human CD33 Y50L (human, UniProt P20138 18-364); human CD33 Y50V (human, UniProt P20138 18-364); human CD33 P48F (human, UniProt P20138 18-364); human CD33 P46F (human, UniProt P20138 18-364); human CD33 Y49R (human, UniProt P20138 18-364); human CD33 F44Q (human, UniProt P20138 18-364); human CD33 I47R (human, UniProt P20138 18-364).

Assay in all cases: flow cytometry on transfected cells, IgG
Background: In flow cytometry, cells or beads pass a laser one at a time.

human CD33 Y50H, sequence (P20138 18-364 Y50H limits assumed): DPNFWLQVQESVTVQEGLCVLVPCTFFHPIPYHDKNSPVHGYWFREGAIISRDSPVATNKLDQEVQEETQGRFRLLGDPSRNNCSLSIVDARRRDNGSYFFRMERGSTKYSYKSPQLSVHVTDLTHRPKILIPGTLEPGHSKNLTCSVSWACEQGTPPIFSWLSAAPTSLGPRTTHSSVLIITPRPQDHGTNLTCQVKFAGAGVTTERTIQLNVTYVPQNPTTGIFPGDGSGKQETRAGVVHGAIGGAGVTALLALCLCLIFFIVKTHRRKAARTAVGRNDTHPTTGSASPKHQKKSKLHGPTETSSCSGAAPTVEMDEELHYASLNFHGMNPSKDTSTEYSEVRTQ
human CD33 P48N, sequence (P20138 18-364 P48N limits assumed): as the sequence (P20138 18-364 Y50H limits assumed) above, with P31N, H33Y counted along it
human CD33 P48F, sequence (P20138 18-364 P48F limits assumed): as the sequence (P20138 18-364 Y50H limits assumed) above, with P31F, H33Y counted along it
human CD33 Y50P, sequence (P20138 18-364 Y50P limits assumed): as the sequence (P20138 18-364 Y50H limits assumed) above, with H33P counted along it
human CD33 F44H, sequence (P20138 18-364 F44H limits assumed): as the sequence (P20138 18-364 Y50H limits assumed) above, with F27H, H33Y counted along it
human CD33 P46F, sequence (P20138 18-364 P46F limits assumed): as the sequence (P20138 18-364 Y50H limits assumed) above, with P29F, H33Y counted along it
human CD33 I47R, sequence (P20138 18-364 I47R limits assumed): as the sequence (P20138 18-364 Y50H limits assumed) above, with I30R, H33Y counted along it
human CD33 I47V, sequence (P20138 18-364 I47V limits assumed): as the sequence (P20138 18-364 Y50H limits assumed) above, with I30V, H33Y counted along it
human CD33 F44Q, sequence (P20138 18-364 F44Q limits assumed): as the sequence (P20138 18-364 Y50H limits assumed) above, with F27Q, H33Y counted along it
human CD33 Y50D, sequence (P20138 18-364 Y50D limits assumed): as the sequence (P20138 18-364 Y50H limits assumed) above, with H33D counted along it
human CD33 F44I, sequence (P20138 18-364 F44I limits assumed): as the sequence (P20138 18-364 Y50H limits assumed) above, with F27I, H33Y counted along it
human CD33 P48M, sequence (P20138 18-364 P48M limits assumed): as the sequence (P20138 18-364 Y50H limits assumed) above, with P31M, H33Y counted along it
human CD33 Y50L, sequence (P20138 18-364 Y50L limits assumed): as the sequence (P20138 18-364 Y50H limits assumed) above, with H33L counted along it
human CD33 I47G, sequence (P20138 18-364 I47G limits assumed): as the sequence (P20138 18-364 Y50H limits assumed) above, with I30G, H33Y counted along it
human CD33 Y49R, sequence (P20138 18-364 Y49R limits assumed): as the sequence (P20138 18-364 Y50H limits assumed) above, with Y32R, H33Y counted along it
human CD33 T42K, sequence (P20138 18-364 T42K limits assumed): as the sequence (P20138 18-364 Y50H limits assumed) above, with T25K, H33Y counted along it
human CD33 Y50V, sequence (P20138 18-364 Y50V limits assumed): as the sequence (P20138 18-364 Y50H limits assumed) above, with H33V counted along it
human CD33 Y49L, sequence (P20138 18-364 Y49L limits assumed): as the sequence (P20138 18-364 Y50H limits assumed) above, with Y32L, H33Y counted along it
Procedure for human CD33 F44H: (§1) An alanine scan on human CD33 was performed to the determine the residues on CD33 that are involved in binding to the antibodies investigated. […] Briefly, a mutation library of CD33 was created by high-throughput, site-directed mutagenesis. Each residue was individually mutated to alanine, with alanine codons mutated to serine. The mutant library was arrayed in 384-well microplates and transiently transfected into HEK293-T. Following transfection, cells were incubated with the indicated antibodies (IgG or Fab) at concentrations pre-determined using an independent immunofluorescence titration curve on wild type CD33. […] Binding of each antibody to each mutant clone was determined in duplicates. For each point, background fluorescence was subtracted from the raw data, which were then normalized to antibody reactivity with wild type CD33.
(§2) Antibodies were screened for binding to the human CD33 variants in IgG format. […] For each mutation, background fluorescence was subtracted from the raw data, which were then normalized to antibody reactivity with wild-type CD33.
Procedure for human CD33 F44I: as §1, §2
Procedure for human CD33 F44Q: as §1, §2
Procedure for human CD33 I47G: as §1, §2
Procedure for human CD33 I47R: as §1, §2
Procedure for human CD33 I47V: as §1, §2
Procedure for human CD33 P46F: as §1, §2
Procedure for human CD33 P48F: as §1, §2
Procedure for human CD33 P48M: as §1, §2
Procedure for human CD33 P48N: as §1, §2
Procedure for human CD33 T42K: as §1, §2
Procedure for human CD33 Y49L: as §1, §2
Procedure for human CD33 Y49R: as §1, §2
Procedure for human CD33 Y50D: as §1, §2
Procedure for human CD33 Y50H: as §1, §2
Procedure for human CD33 Y50L: as §1, §2
Procedure for human CD33 Y50P: as §1, §2
Procedure for human CD33 Y50V: as §1, §2

B1: Refmab #6 (antibody, human IgG1, V domains shown)
VH: QVQLQQPGAEVVKPGASVKMSCKASGYTFTSYYIHWIKQTPGQGLEWVGVIYPGNDDISYNQKFQGKATLTADKSSTTAYMQLSSLTSEDSAVYYCAREVRLRYFDVWGQGTTVTVSS
VL: EIVLTQSPGSLAVSPGERVTMSCKSSQSVFFSSSQKNYLAWYQQIPGQSPRLLIYWASTRESGVPDRFTGSGSGTDFTLTISSVQPEDLAIYYCHQYLSSRTFGQGTKLEIK
Take B1: the “Mean % WT Binding” value with human CD33 P48M amounted to 103 % WT binding; in the experiment with human CD33 P48N, 98.4 % WT binding; with human CD33 T42K, 91.2 % WT binding; with human CD33 Y50D, 129 % WT binding; with human CD33 Y50P it was 98.1 % WT binding; with human CD33 Y50H, 92.2 % WT binding. Besides, the “Mean % WT Binding” value turned out to be 101 % WT binding in the experiment with human CD33 I47V; 93.1 % WT binding in the experiment with human CD33 F44I; 91.3 % WT binding with human CD33 F44H; 105 % WT binding with human CD33 I47G; 97.9 % WT binding in the experiment with human CD33 Y49L; 108 % WT binding with human CD33 Y50L. Moreover, the “Mean % WT Binding” value with human CD33 Y50V was found to be 108 % WT binding; with human CD33 P48F, 93.8 % WT binding; with human CD33 P46F it was 92.6 % WT binding; in the experiment with human CD33 Y49R, 101 % WT binding; with human CD33 F44Q it was 102 % WT binding; in the experiment with human CD33 I47R it was 96.9 % WT binding.
